# Experimental data as given in patent US20190040143A1.
# Target: human HER3 on human cancer cell lines (human) (UniProt P21860)
# Assay: cell-based or functional assay
substance,measurement,value
U1-59 anti-HER3 monoclonal antibody (International Patent Publication WO 2007077028),"maximal extent of pHER3 suppression, Kato III cells",60%
same,"potency in pHER3 ELISA, HCC827 cells, against 2C2 (fold less potent)",10
